Key:
[1] = target: biotinylated human PCSK9 (UniProt Q8NBP7 31-692, biotinylated (sites not given)); test: competition binding ELISA (PCSK9-LDLR)
[2] = target: Human PCSK9 (Genbank EF692496) containing a histidine (His)8 C-terminal tag (UniProt Q8NBP7 31-692); test: BIAcore SPR; FIG. 3A

Binder	IC50 [1]	Kd [2]
YW508.20.84 (antibody, V domains shown) VH: EVQLVESGGGLVQPGGSLRLSCAASGFTFTGYAIHWVRQAPGKGLEWVARISPANGNTNYADSVKGRFTISADTSKNTAYLQMNSLRAEDTAVYYCARWIGSRELYIMDYWGQGTLVTVSS VL: DIQMTQSPSSLSASVGDRVTITCRASQDVSTAVAWYQQKPGKAPKLLIYSASFLYSGVPSRFSGSGSGTDFTLTISSLQPEDFATYYCQQSYPAPSTFGQGTKVEIKR	1.39 nM	0.481 nM
YW508.20.04 (antibody, V domains shown) VH: EVQLVESGGGLVQPGGSLRLSCAASGFTFTGYAIHWVRQAPGKGLEWVGRISPANGNTNYADSVKGRFTISADTSKNTAYLQMNSLRAEDTAVYYCARWIGSRELYIMDYWGQGTLVTVSS VL: DIQMTQSPSSLSASVGDRVTITCRASQDVSTAVAWYQQKPGKAPKLLIYSASFLYSGVPSRFSGSGSGTDFTLTISSLQPEDFATYYCQQSYPAPATFGQGTKVEIKR	0.92 nM	0.757 nM
YW508.20.33 (antibody, V domains shown) VH: EVQLVESGGGLVQPGGSLRLSCAASGFTFSSTAIHWVRQAPGKGLEWVARISPANGNTNYADSVKGRFTISADTSKNTAYLQMNSLRAEDTAVYYCARWIGSRELYIMDYWGQGTLVTVSS VL: DIQMTQSPSSLSASVGDRVTITCRASQDVSTAVAWYQQKPGKAPKLLIYSASFLYSGVPSRFSGSGSGTDFTLTISSLQPEDFATYYCQQSYPALHTFGQGTKVEIKR	1.31 nM	0.408 nM
YW508.20 (antibody, V domains shown) VH: EVQLVESGGGLVQPGGSLRLSCAASGFTFTGYAIHWVRQAPGKGLEWVGRISPANGNTNYADSVKGRFTISADTSKNTAYLQMNSLRAEDTAVYYCARWIGSRELYIMDYWGQGTLVTVSS VL: DIQMTQSPSSLSASVGDRVTITCRASQDVSSAVAWYQQKPGKAPKLLIYSASSLYSGVPSRFSGSRSGTDFTLTISSLQPEDFATYYCQQSYTTPPTFGQGTKVEIKR	15.2 nM	
YW508.20.28 (antibody, V domains shown) VH: EVQLVESGGGLVQPGGSLRLSCAASGFTFTRHTIHWVRQAPGKGLEWVARISPANGNTNYADSVKGRFTISADTSKNTAYLQMNSLRAEDTAVYYCARWIGSRELYIMDYWGQGTLVTVSS VL: DIQMTQSPSSLSASVGDRVTITCRASQDVSTAVAWYQQKPGKAPKLLIYSASFLYSGVPSRFSGSGSGTDFTLTISSLQPEDFATYYCQQSYRIQPTFGQGTKVEIKR	1.05 nM	0.349 nM
YW508.20.06 (antibody, V domains shown) VH: EVQLVESGGGLVQPGGSLRLSCAASGFTFTGYAIHWVRQAPGKGLEWVARISPANGNTNYADSVKGRFTISADTSKNTAYLQMNSLRAEDTAVYYCARWIGSRELYIMDYWGQGTLVTVSS VL: DIQMTQSPSSLSASVGDRVTITCRASQDVSTAVAWYQQKPGKAPKLLIYSASFLYSGVPSRFSGSGSGTDFTLTISSLQPEDFATYYCQQSYPSPATFGQGTKVEIKR	1 nM	0.628 nM
